Source: US20210347914A1

What was measured:
[1] = molecular target: GFAP purified from human brain (human) (UniProt P14136); assay: chemiluminescent sandwich ELISA; GFAP-2 capture, HRP-GFAP-6 detection; GFAP standard 10 pg/ml
[2] = molecular target: GFAP purified from human brain (human) (UniProt P14136); assay: chemiluminescent sandwich ELISA; GFAP-2 capture, HRP-GFAP-6 detection; GFAP standard 20 pg/ml
[3] = molecular target: GFAP purified from human brain (human) (UniProt P14136); assay: chemiluminescent sandwich ELISA; GFAP-2 capture, HRP-GFAP-6 detection; GFAP standard 40 pg/ml
[4] = molecular target: GFAP purified from human brain (human) (UniProt P14136); assay: chemiluminescent sandwich ELISA; GFAP-2 capture, HRP-GFAP-6 detection; GFAP standard 80 pg/ml
[5] = molecular target: GFAP purified from human brain (human) (UniProt P14136); assay: chemiluminescent sandwich ELISA; GFAP-2 capture, HRP-GFAP-6 detection; GFAP standard 160 pg/ml
[6] = molecular target: GFAP purified from human brain (human) (UniProt P14136); assay: chemiluminescent sandwich ELISA; GFAP-2 capture, HRP-GFAP-6 detection; GFAP standard 320 pg/ml
[7] = molecular target: GFAP purified from human brain (human) (UniProt P14136); assay: chemiluminescent sandwich ELISA; GFAP-2 capture, HRP-GFAP-6 detection; GFAP standard 640 pg/ml

Sequence of GFAP purified from human brain (human) (P14136 whole entry): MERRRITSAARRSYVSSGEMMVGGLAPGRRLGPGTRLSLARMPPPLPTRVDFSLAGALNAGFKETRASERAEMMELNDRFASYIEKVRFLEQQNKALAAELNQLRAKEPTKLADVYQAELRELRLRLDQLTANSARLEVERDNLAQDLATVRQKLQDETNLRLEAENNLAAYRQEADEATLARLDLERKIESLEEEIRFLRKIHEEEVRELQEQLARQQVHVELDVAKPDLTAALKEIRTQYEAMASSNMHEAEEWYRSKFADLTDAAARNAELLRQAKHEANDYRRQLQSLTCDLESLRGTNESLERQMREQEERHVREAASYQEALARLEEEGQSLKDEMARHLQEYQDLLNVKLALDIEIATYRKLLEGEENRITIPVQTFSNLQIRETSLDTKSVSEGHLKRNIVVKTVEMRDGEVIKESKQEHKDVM

- Relative Light Unit (rlu) [1]: 3640 rlu
- Relative Light Unit (rlu) [2]: 7420 rlu
- Relative Light Unit (rlu) [3]: 22700 rlu
- Relative Light Unit (rlu) [4]: 72700 rlu
- Relative Light Unit (rlu) [5]: 208000 rlu
- Relative Light Unit (rlu) [6]: 487000 rlu
- Relative Light Unit (rlu) [7]: 1.12e+06 rlu
B1: GFAP-6 (antibody, V domains shown)
VH: EVQLQQSGAEFVKPGASVKLSCTASGFNIKDTDMHWVRQRPEQGLESIGLIDPAIGNTKYDPKFQGKATITADTSSNAAYLQLSSLTSEDTAVYYCARSDRYLAWFAYWGQGTLVTVSA
VL: DIVMTQSPATLSVTPGDRVSLSCRASQSISDFLHWYQQKSHGSPRLLIKYSSQSISGIPSRFSGSGSGSDFTLSINSVEPEDVGVYYCQNGHTFPYTFGGGTKLEIK
